Laboratory results: patent US20140017240A1 (University of California, published 2014)

Assays:
[1] = target: T1, N-cadherin on the cell surface (PC3 cells and LNCaP N-cadherin transfected cells) (human, UniProt P19022 160-906); assay: flow cytometry, diabody at 2 ug/ml on PC3 cells
T1 construct: whole, on cells; DU145 and untransfected LNCaP cells served as N-cadherin negative cells; also called cellular N-cadherin; cell surface N-cadherin
T1 sequence (looked up): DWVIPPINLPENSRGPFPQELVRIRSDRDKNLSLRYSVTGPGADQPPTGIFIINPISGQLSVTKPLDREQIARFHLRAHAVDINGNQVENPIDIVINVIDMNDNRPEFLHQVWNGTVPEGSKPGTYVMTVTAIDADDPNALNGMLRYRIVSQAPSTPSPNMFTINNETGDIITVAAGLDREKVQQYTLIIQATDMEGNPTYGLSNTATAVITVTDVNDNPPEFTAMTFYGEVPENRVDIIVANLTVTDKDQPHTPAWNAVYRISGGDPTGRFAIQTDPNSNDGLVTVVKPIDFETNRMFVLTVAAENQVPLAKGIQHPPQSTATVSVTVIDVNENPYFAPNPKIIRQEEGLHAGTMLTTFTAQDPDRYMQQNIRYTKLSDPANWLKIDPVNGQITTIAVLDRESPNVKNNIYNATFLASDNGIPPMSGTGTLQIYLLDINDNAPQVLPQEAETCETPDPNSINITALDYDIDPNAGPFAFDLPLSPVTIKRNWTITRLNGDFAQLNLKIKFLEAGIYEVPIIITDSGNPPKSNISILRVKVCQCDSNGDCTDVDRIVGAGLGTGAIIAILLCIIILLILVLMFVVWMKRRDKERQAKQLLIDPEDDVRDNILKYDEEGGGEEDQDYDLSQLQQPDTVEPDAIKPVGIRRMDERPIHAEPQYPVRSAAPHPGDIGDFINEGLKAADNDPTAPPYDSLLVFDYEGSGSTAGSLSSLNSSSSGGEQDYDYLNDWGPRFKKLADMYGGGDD

[2] = target: T1, N-cadherin on the cell surface (PC3 …); assay: flow cytometry, diabody on N-cadherin positive cells
Protocol: Flow cytometry was conducted to assess binding of phage antibody clones and diabodies to cellular N-cadherin. For phage antibody staining supernatant concentrated 20 times was used. Individual clones were grown in 20 ml 2TY to a density of 0.5 O.D_{600 nm} when phage were rescued with helper phages. After an overnight culture, monoclonal phage were harvested from the supernatant by precipitation with PEG/NaCl and resuspended in 1 ml PBS/1% BSA. For flow cytometry staining, 5×10⁵ cells were incubated for one hour on ice with 100 μl of 20×PEG concentrated phage antibody clone. Cells were washed in flow buffer (PBS 1% FBS, 1 mM EDTA, 0.02% Sodium azide) and the phage antibody clones detected with monoclonal anti-M13 antibody (Amersham Biosciences). Cells were washed and stained with R-PE congugated anti-mouse antibody. For diabody staining, 5×10⁵ cells were incubated for one hour on ice with the diabody at a 2 μg/ml concentration in flow buffer. Cells were washed and the diabody detected with 1/100 anti-c-Myc-biotin antibody in flow buffer. Cells were finally washed and stained with 1/40 Streptavidin-R-PE (SIGMA) in flow buffer.
The eleven individual phage clones selected by ELISA were tested for cell binding of N-cadherin positive cells (PC3 and LNCaP N-cadherin transfected cells) by flow cytometry. […]

[3] = target: N-cadherin on the cell surface (PC3 cells and LNCaP N-cadherin transfected cells) (human) (UniProt P19022); assay: flow cytometry, phage clone on N-cadherin positive cells (cell line not stated)
[4] = target: T2, N-cadherin extracellular domains one to three recombinant protein with 6 histidine tag (human, UniProt P19022 160-497); assay: phage ELISA
T2 construct: range 160-497; Expressed in bacteria and purified from the periplasmic fraction on Ni-NTA; also called ECD1-3-6HIS; ECD1-3 6HIS; not shown: 6 histidine tag
T2 sequence (looked up): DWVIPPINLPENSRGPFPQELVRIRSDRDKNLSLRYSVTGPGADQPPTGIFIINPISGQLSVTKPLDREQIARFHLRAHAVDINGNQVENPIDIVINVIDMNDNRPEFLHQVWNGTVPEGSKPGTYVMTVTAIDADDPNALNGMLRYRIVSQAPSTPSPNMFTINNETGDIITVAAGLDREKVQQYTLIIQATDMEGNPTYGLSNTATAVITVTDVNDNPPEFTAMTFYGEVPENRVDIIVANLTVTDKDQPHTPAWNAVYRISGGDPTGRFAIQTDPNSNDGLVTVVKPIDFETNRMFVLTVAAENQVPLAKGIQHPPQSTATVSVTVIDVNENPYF

[5] = target: T3, N-cadherin extracellular domains one to three recombinant protein with GST tag (human) (UniProt P19022); assay: phage ELISA, plate coated with ECD1-3-GST
T3 sequence (looked up): T2 sequence (looked up)

[6] = target: T4, N-cadherin extracellular domains one to three recombinant protein with 6 histidine tag (human) (UniProt P19022); assay: phage ELISA, plate coated with ECD1-3-6HIS
T4 sequence (looked up): T2 sequence (looked up)

[7] = target: T3, N-cadherin extracellular domains one to three recombinant protein with GST tag (human); assay: phage ELISA, second phage batch, plate coated with ECD1-3-GST
[8] = target: T4, N-cadherin extracellular domains one to three recombinant protein with 6 histidine tag (human); assay: phage ELISA, second phage batch, plate coated with ECD1-3-6HIS

B1: D4 diabody (other)
chain: MAQVQLVQSGAEVKRPGASVRISCKASGYPFTTYPIHWVRQAPGQGLEWMGGINPNSGATKNVQKFQGRVTMTADTSIRTAYMELSRLTSDDTAVYYCARGEGDTGSYLGGYWGLGTLVTVSSGGGGSSELTQDPAVSVALGQTVRITCQGDSLRSYYASWYQQKPGRAPLLVIYGKNIRPSGIPDRFSGSSSGNSASLTITGAQAEDEADYYCNSRDRSGNYLFGVGTKVTVLG
notes: Diabody made from the scFv by shortening the linker; also called D4 Db; not shown: c-Myc and 6HIS tags from the pSyn1 vector
[1]
  binding result: binds

B2: A14 diabody (other)
chain: MAQVQLVQSGGGLAQPGGSLRLSCAASGFTFSRHAMIWVRQAPGKGLEWVSSISGSSDSTSYADSVKGRFTISRDNSKNTLYLQMNTLRAEDTAVYYCAKATGYSYYYGMDVWGPGTTVTVSSGGGGSDIQMTQSPSSLSASLGDRVTITCRASQGISNYLAWYQQKPGKAPKLLIYGATTLQHGVPSRFSGSGSGTDFSLTISSLQPEDFAIYFCQQAHSFPPTFGGGTKLEIKR
notes: Diabody (small bivalent antibody fragment) made from the scFv by shortening the linker from 15 to 5 a.a; also called A14 Db; not shown: c-Myc and 6HIS tags from the pSyn1 vector
[2]
  binding result: binds

B3: D4 phage antibody clone (scFv)
scFv: MAQVQLVQSGAEVKRPGASVRISCKASGYPFTTYPIHWVRQAPGQGLEWMGGINPNSGATKNVQKFQGRVTMTADTSIRTAYMELSRLTSDDTAVYYCARGEGDTGSYLGGYWGLGTLVTVSSGGGGSGGGGSGGGGSSELTQDPAVSVALGQTVRITCQGDSLRSYYASWYQQKPGRAPLLVIYGKNIRPSGIPDRFSGSSSGNSASLTITGAQAEDEADYYCNSRDRSGNYLFGVGTKVTVLG
[3]
  Flow Cytometry (MFI): 0 MFI

B4: E4 diabody (other)
chain: MAQVQLVQSGAEVKKPGESLEISCKGSGYSFANNWIGWVRQMPGKGLEWMGSIYPGDSDVRYSRSFQGHVTISADKSISTAYLQWSSLKASDTAMYYCARHRVAYSGYDAFDIWGQGTMVTVSSGGGGSSVLTQDPAVSVALGQTVRITCQGDSLRSYYPSWYQQKPGQAPVLVIYGKNNRPSGIPDRFSGSSSGNTASLTITGAQAEDEADYYCHSRDRSGNQVLFGGGTKVTVLG
notes: Diabody made from the scFv by shortening the linker; also called E4 Db; not shown: c-Myc and 6HIS tags from the pSyn1 vector
[2]
  binding result: binds

B5: A14 ScFv phage antibody clone (scFv)
scFv: MAQVQLVQSGGGLAQPGGSLRLSCAASGFTFSRHAMIWVRQAPGKGLEWVSSISGSSDSTSYADSVKGRFTISRDNSKNTLYLQMNTLRAEDTAVYYCAKATGYSYYYGMDVWGPGTTVTVSSGGGGSGGGGSGGGGSDIQMTQSPSSLSASLGDRVTITCRASQGISNYLAWYQQKPGKAPKLLIYGATTLQHGVPSRFSGSGSGTDFSLTISSLQPEDFAIYFCQQAHSFPPTFGGGTKLEIKR
notes: Clone A1 was renamed A14; Selected on ECD4-6HIS; also called A14 (A1)
[4]
  binding result: no binding

B6: A8 phage antibody clone (truncated) (scFv)
scFv: MAQVQLQESGWYFDLWGRGTPVTVSSGGGGSGGGGSGGGGSEIVLTQSPSSLSASVGDRVTITCRASQGIRNDLGWYQQKPGKAPKLLIYAASSLQSGVPSRFSGSGSGTDFTLTISSLQPEDFATYYCLQDYNGWTFGQGTKVEIKR
[5]
  1st ELISA (O.D): 0.17 O.D
[6]
  1st ELISA (O.D): 0.25 O.D
[7]
  2nd ELISA (O.D): 0.05 O.D
[8]
  2nd ELISA (O.D): 0.11 O.D
[3]
  Flow Cytometry (MFI): 30 MFI
